Results as given in the DeepSol protein solubility set.

experiment: soluble on expression in E. coli; label from the status in PepcDB or PDB records

Row | Sequence | soluble on expression in E. coli
1 | MTTTDVSWPKSLWHAVTGPGPGLPALHGAEEADVVVVGGGFSGLSTALHLREAGVDVAVVEAAEPGWGASGRNNGQVIPTLSRPDPEDIVAKHGAAGERLVGLIRDSASILFDVAKRHGVDAEQEQNGWVQPVHSPGRIKIAERRFRQWSKFGAPVELLSRDQVRDMLGSEAWFGGFWNRTGGHVNPLALARGLARAVLAQGGRIFARSPAVSIERRGDRWIVKTAQGEISGRALVVASNAYTGEFSKTLAPAIASEVMPVRSWQMATQPLSDNVRKTIIPGRQAMSDTHGELIFGRFDARNRFVTGGAIIRPFNQIATLKARVGKRLQRLWPQIGEVRFDYVWNGFIGMTTDYLPHIHRLGPNAYGWTGCNGRGVALSVALGRELSKAVRGVTDGELALPFTEPTPIPANELLRPFAPLMMVLYRHRDAKEIGLEHHHHHH | not soluble
2 | MTTTGHVHFYIGTYTNPPSTSTSTGIARLSLNTETGELTRLDDVVVQRNPSYLTTTEHGLYTFSEMDRNEGTELAFFRGSESVSLPINGDYPCHLDIKEPLLAVANYGSGNVSVFQLDRDGKPLGLLADLYVDGCGPNLERQTSPHAHQVTFLKHSHQLVVVDLGSDSVLIYDYDAQPPDFSLSQVIHLPAGSGPRHVVFNQQESTAYVVCELSETLIVLVKHQDKWLISNQTELLEGEENQQAAAAIRLSQDETFLYVSCRAQNKISMFDVSGDTPKRRAAIHCEGVFPRDFVLSHDQKWLLVANQHSNNVVSFRRNPQTGEITPTGYDCEIGSPVCIVEQPLLEHHHHHH | not soluble
3 | MTTTPIADQAAVLAEGMADQTPSEALEAFGAEQAELDAAGVPSGIATAGSLMPDASLLDVHGNATTLQQVREGRPAVVVFYRGAWCPYCNLALRTYERELAPRLAERGVSMIAVSPQRPDGSLTMAQTNDLSYDVLSDPGNHIGRALGIVTRPTDRVQHAQASLGLDLTEVNADGTPDILMPTVAIVDAEGVLRWIDVHPNYVTRSEPARILEALARAVR | not soluble
4 | MTTTTTVRQCRVTRIGSTELPPRVENAIQFLDDQCYEKLGGTVVMKWFGNRVPPEDHRQLSSFCHVVNLTKYDDDPKSRYHKDDIECACGTSSNLFFLKKFNEAVEKYPCDDDETITKAPTTEPSDDLWCWQLRSRSFASSPPPPRMKNAIQLLDDKCYAKLGGTTVMKWFGNVVTPEGKVCFVINLTDSKMKLYKKEIVCACGRQSYVFFLEGLILMREKYSCNDKTTTKSTRTTPSTTTAKQCYVRRTGSSVSPPRETDAIPMLDDQCYEKMGGTSVMDRFGNREPPKSVYEYSEFCLLVDVTLNGPAMETYQSDIECVCGISSLEFFLEKFEEAIKKYPCDNDGATEAATTKPTTTTVTTTTVPPKTDPPRTEPPKTEPPTTEPPKIEPPRTEPPKTEPPPTEPPKTEPPKTTPPKTEPPTTEPPNIPYCWQQQSRLFAPSPPPPRVNNTMPLIEDKCYAKLGDTLVMAWFGNRAPPKNFTEVLDFCTVAALTYNNESAVFSVFKKDIQCNCDKLSFSRFLKKLSEAMEKYQCNNVWTRTEAPETVTTRTEPPRTEPPRTIPPRTEAPRTEPPRTEPPKTEAPRTVRPKTEAPMTVPPRTEPPMTEAPRTEVPMTEPPKTEPPRTAPPRTEVSMTLPPETVPPNTEAPRTEVPMTVPPRTEPPKTEAPRTVPPKTEAPMTEVPMTGPSRTEVPMTEPPKTEQPRTAPPRTEVSMTLPPETVPPKTEAPRTEVPMTGPSRTEVPMTVTPETGLSSTVTSKTEPPKTTTEKRITPRTEVPKTVPPRTGPPMTVPPGTEAPTTEAPMTITPRTEQLRTEQLRTDQSKTVTPKTKITVWPTDYRGPI | not soluble
5 | MTVIALRHLGPAERKSFARHLAGGDFPGKGAWDDGTVVLDRVLDGLGDEAGRALIEGALAKASRMVVVTLGGEAAARWTPEVLGPAFVYLLGEAIDADSPAVALAFLDGPGRPRLFAPRFSVMVPVYNHRDLIGACLDSIAAQSWPLWEAVVVDDGSTDGVATLLTERAAADPRLRWSSQANGGTGAALNACLAMAREEWIAWLSSDDLFAPDKLAAHAALLRRDGLAPAFHHTAVIRRNDAGEEQVVAPLGPLMTGSAGLRRLAMTSVNLIQGISIVVHRDLFAQTAGFDPRNRFTQDYAMWVRLMERTDPVYLPLVTAVTRVGAAQTTARHYQRTRAEAIAAILGALRDFSAGAPDDREARLEAVAALVMLASSPHGFLARYGLQGWYVARAMGLAAEAKVLGATFADVSARLGPWSVGHIHDPQAMGHLAMIESVFREDKAAAPIDPFRILTRMLISPTIPADLAEAITGFLRGDLPQPLEHHHHHH | not soluble
6 | MTVKQTVEVTNKLGMHARPAMKLFELMQGFDAEVLLRNDEGTEAEANSVIALLMLDSAKGRQIEIEATGPQEVEALAAVIALFNSGFDED | not soluble
7 | MTVKVCVCGGGNGAHTLSGLAASRDGVEVRVLTLFADEAERWTKALGADELTVIVNEKDGTQTEVKSRPKVITKDPEIAISGADVVILTVPAFAHEGYFQAMAPYVQDSALIVGLPSQAGFEFQCRDILGDKAAAVSMMSFETLPWACRIKEFGRKVEVLGTKSVLAASLIKGTAKTVDPLSTLQMLHGAEPVFRLAKHFLEMLIMSYSFVHPAILFGRWGSWDGKPVPEAPLFYQGIDQATADMLTACSNECKDVANAIMAACPGNDLSDVKDIYQWYLEYYHEDIQDDHDLYHAITTNKSYKGLVHPVKAVDGGVAPDFGNRYLTEDIPMGMIVFKGVAIAAGVAIPSNDKLIMWAQEKIGKEYLVDGALTGKDVATTRCPQRYGFNTLDAILTGKKHHHHH | soluble
8 | MTVVIGVLALQGAFIEHVRHVEKCIVENRDFYEKKLSVMTVKDKNQLAQCDALIIPGGESTAMSLIAERTGFYDDLYAFVNPSKVTWGTCAGLIYISQQLSNEAKLVKTLNLLKVKVKRNAFGRQAQSSTRICDFSNFIPHCNDFPATFIRAPVIEEVLDPEHVQVLYKLDGKDNGGQELIVAAKQKNNILATSFHPELAENDIRFHDWFIREFVLKNYSK | not soluble
9 | MTYNVWNFGESNGRYSALTARGISKETCQKAGYWIAKVDGVMYQVADYRDQNGNIVSQKVRDKDKNFKTTGSHKSDALFGKHLWNGGKKIVVTEGEIDMLTVMELQDCKYPVVSLGHGASAAKKTCAANYEYFDQFEQIILMFDMDEAGRKAVEEAAQVLPAGKVRVAVLPCKDANECHLNGHDREIMEQVWNAGPWIPDGVVSALSLRERIREHLSSEESVGLLFSGCTGINDKTLGARGGEVIMVTSGSGMVMSTFVRQQALQWGTAMGKKVGLAMLEESVEETAEDLIGLHNRVRLRQSDSLKREIIENGKFDQWFDELFGNDTFHLYDSFAEAETDRLLAKLAYMRSGLGCDVIILDHISIVVSASGESDERKMIDNLMTKLKGFAKSTGVVLVVICHLKNPDKGKAHEEGRPVSITDLRGSGALRQLSDTIIALERNQQGDMPNLVLVRILKCRFTGDTGIAGYMEYNKETGWLEPSSYSGEEESHSESTDWSNDTDF | soluble
10 | MVAAWNRWDLSGIIKHWSPDIVHYSEDNEVSSADMVKLMEGGLKAFPDLQLEMKSIMAEEDRVALRITVTATHQGEFMGVQPTGQRVSWHLVEELRFVDGKVVEHWDVINMRPLLVRLGKLPDVPKVVLEASA | soluble
11 | MVADNSEKSTKSVANGSLISTVSSKDDLPNAIIVTQVPEDVFDNKQDKANFSSLFTQIEKDIHFDFLRSFRRVRVIFSSPENATAAKLIVQGFSFKGHELKAFFAQRIYMSANSQMLSPPPLEKQFLISPPCSPPVGWEQTKDMPPVVCNFDLMARLASFAIDEKYEVHNGDELTPAIIVHPCETPIDVPSAIEMPRTPRPSSPCEQ | not soluble
12 | MVAEGFRLDLLLTIAQLVPSTYHYQVKQLDKPDKDKDLKAEIQAIYDEHKGNYGYRRIHLELRNRGFSVNHKKVQGLMKELGLTARIRRRKRYKSYKGDVGKKAPNLIERAFEGAKPFEKCYTDVTEFALPNCAEKLYLSPVLDGYNSEIIDFTLSRSPNLIQVKTMLEKVFPEETYPNTILHSDQGWQYQHEVYHRFLASKGIRPSMSRKGTSTDNSMMESFFGVLKTEMFYGFEKNFKSLDQLEQAITEYIFYYNNKRIKTKLKGLSPVQYRTKSFQ | not soluble
13 | MVAIDYVVIGAGYAGLMCAEALMDKGFKTLVFDMRESGGEIVVFSKLEEFRSKYEKYIEKIEEIRKDIPVDIGTVIKSKPVIINSGNGLKRYEARRVILATGATDTAPVKLNVLSKKIEGIYTLENALREISENNKIGEKVLIAAKDDVIVKLAESQLSDLGYDVEISELTNDIQVIGKERVEGVEISGVRYSCDTLVVYGGRNPFNPLKLRGTPVGNVVTCTYDYSKVEENVKNFLAKILEHHHHHH | not soluble
14 | MVARISVGKNLYGALAYNQNKVDEGGAKVLSAHLLRYPEDGRFRPDESVRQFLEWMPNHYRTEKPVIHISLNPHPDDVLTDGQLAEIGREYMQRLGYGNQPYLVFKHEDIGRHHIHIVSLRVDSEGRKVSDKFEYRRSKEITELLEQKYGLHPAEGRKKGEEWQLKPVDVAKGDIKRQIACTLKPLLELYSFRTMGELRALLSLYNIGVEEVKGEIGGRTYHGILYTALDGNGETAATPIKSSRLGRTAGAQQLDRKMRESAARIKSAPCRERLRPLVADALRQSVDERDFRDRLAKEQIDLVLRRNGTDRIYGVTFIDHRSRTVLNGSRLGKEFSANMLNGHFQEQPPNSLSPLLPPVPSAVASGNGEKIPGGLLSDMEPELNYVPRYPKLLKPDKKKRRRRYGRQDLEHHHHHH | soluble
15 | MVDLEQEFALGGRCLAFHGPLMYEAKILKIWDPSSKMYTSIPNDKPGGSSQATKEIKPQKLGEDESIPEEIINGKCFFIHYQGWKSSWDEWVGYDRIRAYNEENIAMKKRLANEAKEAKKSLLEHHHHHH | soluble
16 | MVDMKTTHTSLPFAGHTLHFVEFDPANFCEQDLLWLPHYAQLQHAGRKRKTEHLAGRIAAVYALREYGYKCVPAIGELRQPVWPAEVYGSISHCGATALAVVSRQPIGVDIEEIFSAQTATELTDNIITPAEHERLADCGLAFSLALTLAFSAKESAFKASEIQTDAGFLDYQIISWNKQQVIIHRENEMFAVHWQIKEKIVITLCQHD | not soluble
17 | MVEFVNDPNFKDLVVDTTIDNRNDEEPMTIRNFTELMIQFYKLGWMRGSGGAMGCISGSELMISPSALQKERIREQDVFVYNMKDKTEVQRPPNKRITVSSCSVLFSLIMKETGSECVIHTHSKCANLITQLIKSNVFEISHQEYIKGIYDPFSGKALKYSDTLTIPIIDNMPSESQLLVCAINRSPMQPDCFINIALFQEPIRGVLENYPQAIAVLVRNHGLFVWGPTWESTKIMTECIDYLLELSIEMLKNNIPLVNEEAFEKEDNLSDKMRTLMFGDMAPV | not soluble
18 | MVEPQHNVMQMGGDFANNPNAQQFIDKMVNKHGFDRQQLQEILSQAKRLDSVLRLMDNQAPTTSVKPPSGPNGAWLRYRKKFITPDNVQNGVVFWNQYEDALNRAWQVYGVPPEIIVGIIGVETRWGRVMGKTRILDALATLSFNYPRRAEYFSGELETFLLMARDEQDDPLNLKGSFAGAMGYGQFMPSSYKQYAVDFSGDGHINLWDPVDAIGSVANYFKAHGWVKGDQVAVMANGQAPGLPNGFKTKYSISQLAAAGLTPQQPLGNHQQASLLRLDVGTGYQYWYGLPNFYTITRYNHSTHYAMAVWQLGQAVALARVQ | soluble
19 | MVEVPSFRSNEHFPQLCDKVTVKWDKKRGRFVEAIEDIPIGTVVCVETGITVNVDPQNCYRCLKITENASFAYCKNCEEFYEPDEIACGEFDELGIFKLAAHLVFSYPFADIASLVQSSDPEPPSCAPKALSTQDIEAIFQLTPFPEIGEAFKAPAIQNAIKRIVESLETDENWGRLDQISRTMTFTKALRIMAERSAKNAHTIYSIEQIESQEDNLPMATGLFPISSIFNHSCTPNISGFFVRNTFIFVSQGVRAREELLDSYGVTYHQHTFEQRTNFLASVSGFICHCESCFKMKSLKVLEKPKKYPETIATNASCFTDITSYTENIPRGSKELENLIIAFARRPDSETYTELIFQFWKKFVENAKFRGITYDPYLVRPYVEMTILAWNKEVGCENEEKMSLLIVTHRLLRNCYVDLHPLSELVVKLVNVVANQNADEINRTLEKLKLRARMLWKYSEQSEDL | not soluble
